Laboratory results as given in the supplement of paper PMC10724198.
± gives the standard deviation of the averaged measurements.

What was measured:
Saccharomyces cerevisiae [1] = experiment: protein stability index of tFT-peptide fusion (C-terminal peptide) (PSI (0-1 scale)); higher = more stable (slower turnover)
Protocol: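 MPS profiling in S. cerevisiae of the tFT-X12 degron library: putative degron peptides plus stable controls, 12 aa, fused to the C-terminus of a sfGFP-mCherry timer. Cells are FACS-sorted into 8 mCherry/sfGFP bins and deep-sequenced. PSI runs from 0 (unstable) to 1 (stable). Backgrounds are wild type, das1Δ and doa10Δ at 30 °C, and wild type, das1Δ, cdc34-1 and cdc53-1 at 37 °C; 2-3 technical replicates each.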

Saccharomyces cerevisiae [2] = experiment: as above; conditions: genetic background: wild type; temperature: 30 C
[3] = genetic background: cdc34-1, temperature: 37 C
[4] = genetic background: cdc53-1, temperature: 37 C
[5] = genetic background: das1 deletion, temperature: 30 C
[6] = genetic background: das1 deletion, temperature: 37 C
[7] = genetic background: doa10 deletion, temperature: 30 C
[8] = genetic background: wild type, temperature: 30 C
[9] = genetic background: wild type, temperature: 37 C
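Also: PSI is a weighted mean of sequencing reads over stability bins, variants kept only with over 10 reads, mCherry proximal and sfGFP distal, peptide attached via GGGS linker.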

| Sequence | protein stability index (Saccharomyces cerevisiae [1]; [3]) | protein stability index (Saccharomyces cerevisiae [1]; [4]) | protein stability index (Saccharomyces cerevisiae [1]; [5]) | protein stability index (Saccharomyces cerevisiae [1]; [6]) | protein stability index (Saccharomyces cerevisiae [1]; [7]) | protein stability index (Saccharomyces cerevisiae [1]; [8]) | protein stability index (Saccharomyces cerevisiae [1]; [9]) | protein stability index (Saccharomyces cerevisiae [2]) |
| --- | --- | --- | --- | --- | --- | --- | --- | --- |
| PPLPPPPASVPP | 0.675 ± 0.022 | 0.719 ± 0.025 | 0.641 ± 0.011 | 0.7088 ± 0.0051 | 0.6476 ± 0.0014 | 0.682 ± 0.041 | 0.68 ± 0.03 | 0.503 ± 0.016 |
| LWFRGGYLFFVV | 0.44378 ± 0.00022 | 0.444 ± 0.013 | 0.439 ± 0.025 | 0.499 ± 0.01 | 0.2 ± 0.013 | 0.185 ± 0.016 | 0.332 ± 0.0057 | 0.265 ± 0.043 |
| FSVLLLANFCFF | 0.498 ± 0.031 | 0.516 ± 0.0072 | 0.409 ± 0.037 | 0.554 ± 0.015 | 0.363 ± 0.016 | 0.407 ± 0.043 | 0.528 ± 0.015 | 0.482 ± 0.0056 |
| VLARGFHCMYFC | 0.68 ± 0.025 | 0.736 ± 0.022 | 0.621 ± 0.022 | 0.75484 ± 0.00037 | 0.444 ± 0.022 | 0.447 ± 0.021 | 0.623 ± 0.02 | 0.484 ± 0.048 |
| FIFYYTVLLLCR | 0.0366 ± 0.0015 | 0.0671 ± 0.0072 | 0.131 ± 0.024 | 0.171 ± 0.0048 | 0.13 ± 0.0087 | 0.115 ± 0.019 | 0.1312 ± 0.0012 | 0.181 ± 0.014 |
| LGFSHTRAIFFV | 0.651 ± 0.039 | 0.7312 ± 0.0055 | 0.605 ± 0.012 | 0.724 ± 0.0022 | 0.186 ± 0.01 | 0.213 ± 0.0094 | 0.396 ± 0.0071 | 0.307 ± 0.011 |
| LFFWVLTVMFVW | 0.162 ± 0.025 | 0.23 ± 0.0048 | 0.224 ± 0.013 | 0.3199 ± 0.00034 | 0.222 ± 0.011 | 0.195 ± 0.015 | 0.283 ± 0.015 | 0.302 ± 0.046 |
| CSYPTLSMYSTT | 0.673 ± 0.068 | 0.766 ± 0.038 | 0.655 ± 0.013 | 0.718 ± 0.017 | 0.665 ± 0.007 | 0.645 ± 0.013 | 0.71 ± 0.011 | 0.74 ± 0.072 |
| GWLVGLGLVFFT | 0.586 ± 0.018 | 0.664 ± 0.01 | 0.513 ± 0.033 | 0.661 ± 0.014 | 0.488 ± 0.02 | 0.499 ± 0.031 | 0.618 ± 0.011 | 0.514 ± 0.03 |
| GKKKREWKKNRI | 0.6893 ± 0.00074 | 0.733 ± 0.0097 | 0.645 ± 0.022 | 0.711 ± 0.013 | 0.217 ± 0.026 | 0.257 ± 0.041 | 0.552 ± 0.0071 | 0.382 ± 0.021 |
| KLCVGLVLSFVC | 0.47 ± 0.021 | 0.503 ± 0.043 | 0.341 ± 0.028 | 0.5351 ± 0.0032 | 0.176 ± 0.0034 | 0.206 ± 0.023 | 0.3964 ± 0.0008 | 0.257 ± 0.053 |
| SIRIIVVVRGAS | 0.528 ± 0.048 | 0.628 ± 0.056 | 0.433 ± 0.023 | 0.61 ± 0.071 | 0.393 ± 0.024 | 0.41 ± 0.017 | 0.543 ± 0.02 | 0.382 ± 0.12 |
| RFFVLSFFFLVS | 0.215 ± 0.013 | 0.335 ± 0.069 | 0.224 ± 0.023 | 0.416 ± 0.014 | 0.209 ± 0.01 | 0.212 ± 0.029 | 0.384 ± 0.0071 | 0.282 ± 0.024 |
| VGGSRGARLGVG | 0.352 ± 0.012 | 0.448 ± 0.014 | 0.389 ± 0.011 | 0.426 ± 0.0085 | 0.3945 ± 0.00071 | 0.384 ± 0.01 | 0.42 ± 0.021 | 0.386 ± 0.014 |
| CLFLNCRFYMFL | 0.951 ± 0.021 | 0.898 ± 0.065 | 0.808 ± 0.04 | 0.89 ± 0.024 | 0.788 ± 0.014 | 0.796 ± 0.036 | 0.905 ± 0.011 | 0.821 ± 0.035 |
| IFLKFGLLRSLL | 0.9386 ± 0.006 | 0.8936 ± 0.0072 | 0.744 ± 0.012 | 0.85 ± 0.031 | 0.6161 ± 0.0027 | 0.628 ± 0.046 | 0.792 ± 0.053 | 0.488 ± 0.026 |
| LILIVVVAGSVG | 0.201 ± 0.019 | 0.392 ± 0.088 | 0.226 ± 0.027 | 0.437 ± 0.0066 | 0.206 ± 0.014 | 0.23 ± 0.013 | 0.385 ± 0.015 | 0.269 ± 0.038 |
| MCRMYELYVTSS | 0.504 ± 0.046 | 0.568 ± 0.079 | 0.382 ± 0.034 | 0.588 ± 0.026 | 0.349 ± 0.025 | 0.374 ± 0.018 | 0.558 ± 0.016 | 0.467 ± 0.01 |
| RGLANLIVIVSS | 0.572 ± 0.04 | 0.602 ± 0.0069 | 0.397 ± 0.022 | 0.603 ± 0.015 | 0.186 ± 0.012 | 0.228 ± 0.027 | 0.392 ± 0.011 | 0.374 ± 0.013 |
| GILVVAASICYV | 0.451 ± 0.021 | 0.48 ± 0.02 | 0.355 ± 0.031 | 0.52243 ± 0.00038 | 0.342 ± 0.0088 | 0.359 ± 0.017 | 0.488 ± 0.015 | 0.447 ± 0.018 |

| Sequence | protein stability index (Saccharomyces cerevisiae [1]; [3]) | protein stability index (Saccharomyces cerevisiae [1]; [4]) | protein stability index (Saccharomyces cerevisiae [1]; [5]) | protein stability index (Saccharomyces cerevisiae [1]; [6]) | protein stability index (Saccharomyces cerevisiae [1]; [7]) | protein stability index (Saccharomyces cerevisiae [1]; [8]) | protein stability index (Saccharomyces cerevisiae [1]; [9]) | protein stability index (Saccharomyces cerevisiae [2]) |
| --- | --- | --- | --- | --- | --- | --- | --- | --- |
| AHPTLILTNKIA | 0.578 ± 0.13 | 0.705 ± 0.063 | 0.643 ± 0.025 | 0.712 ± 0.044 | 0.0637 ± 0.025 | 0.104 ± 0.044 | 0.121 ± 0.023 | 0.237 ± 0.0044 |
| GVCRFFCLVFCS | 0.544 ± 0.02 | 0.5349 ± 0.0021 | 0.507 ± 0.049 | 0.515 ± 0.018 | 0.494 ± 0.013 | 0.441 ± 0.018 | 0.4723 ± 0.003 | 0.466 ± 0.036 |
| TEVGAWLLLCRC | 0.271 ± 0.051 | 0.307 ± 0.01 | 0.268 ± 0.034 | 0.403 ± 0.02 | 0.231 ± 0.0043 | 0.277 ± 0.017 | 0.385 ± 0.0097 | 0.363 ± 0.009 |
| SFVCFFLNLFVY | 0.0549 ± 0.013 | 0.138 ± 0.013 | 0.172 ± 0.032 | 0.272 ± 0.017 | 0.123 ± 0.021 | 0.123 ± 0.019 | 0.18 ± 0.018 | 0.164 ± 0.0077 |
| LSCFCLFCLSFC | 0.634 ± 0.053 | 0.678 ± 0.026 | 0.518 ± 0.036 | 0.663 ± 0.027 | 0.517 ± 0.039 | 0.496 ± 0.015 | 0.669 ± 0.0017 | 0.0626 ± 0.033 |
| SCRCIIFVCCFW | 0.256 ± 0.0043 | 0.404 ± 0.032 | 0.262 ± 0.025 | 0.465 ± 0.057 | 0.235 ± 0.0024 | 0.237 ± 0.034 | 0.388 ± 0.023 | 0.384 ± 0.011 |
| GLCLFLIGVFSV | 0.224 ± 0.0031 | 0.313 ± 0.06 | 0.246 ± 0.039 | 0.439 ± 0.022 | 0.2104 ± 0.0019 | 0.237 ± 0.023 | 0.381 ± 0.026 | 0.4425 ± 0.0022 |
| CVISLVTAVRLF | 0.514 ± 0.023 | 0.5526 ± 0.0029 | 0.453 ± 0.022 | 0.589 ± 0.019 | 0.405 ± 0.028 | 0.426 ± 0.026 | 0.544 ± 0.018 | 0.4644 ± 0.0021 |
| LFLSFLLFVLAF | 0.434 ± 0.023 | 0.444 ± 0.015 | 0.319 ± 0.029 | 0.471 ± 0.036 | 0.302 ± 0.0039 | 0.312 ± 0.045 | 0.425 ± 0.0086 | 0.388 ± 0.042 |
| RFLFYSFPIHTL | 0.442 ± 0.061 | 0.6164 ± 0.0028 | 0.572 ± 0.039 | 0.67 ± 0.043 | 0.0683 ± 0.0092 | 0.0745 ± 0.019 | 0.105 ± 0.033 | 0.128 ± 0.0043 |
| ASHLGLGCLVVC | 0.601 ± 0.089 | 0.571 ± 0.045 | 0.426 ± 0.018 | 0.604 ± 0.015 | 0.389 ± 0.028 | 0.408 ± 0.02 | 0.579 ± 0.021 | 0.491 ± 0.0059 |
| ILDRRPRTFALV | 0.572 ± 0.017 | 0.644 ± 0.018 | 0.633 ± 0.02 | 0.692 ± 0.013 | 0.0946 ± 0.015 | 0.113 ± 0.011 | 0.149 ± 0.008 | 0.186 ± 0.0083 |
| RHTVFFCQLLLV | 0.291 ± 0.0074 | 0.368 ± 0.0077 | 0.307 ± 0.012 | 0.43923 ± 3.7e-05 | 0.175 ± 0.024 | 0.185 ± 0.026 | 0.277 ± 0.046 | 0.238 ± 0.003 |
| LYVLNILSFVCV | 0.1572 ± 0.0013 | 0.25 ± 0.0041 | 0.137 ± 0.013 | 0.251 ± 0.023 | 0.115 ± 0.0099 | 0.117 ± 0.017 | 0.207 ± 0.0027 | 0.1688 ± 0.00051 |
| WLCLAVLVRFPC | 0.273 ± 0.0054 | 0.274 ± 0.018 | 0.25 ± 0.043 | 0.3989 ± 0.0019 | 0.2621 ± 0.0017 | 0.248 ± 0.017 | 0.369 ± 0.018 | 0.3532 ± 0.0026 |
| GAVKCLVCLAVW | 0.282 ± 0.0035 | 0.365 ± 0.054 | 0.309 ± 0.032 | 0.4138 ± 0.0017 | 0.26 ± 0.011 | 0.3 ± 0.026 | 0.3844 ± 0.00071 | 0.404 ± 0.022 |
| GLLLVWAALGFV | 0.343 ± 0.033 | 0.4444 ± 0.0018 | 0.28 ± 0.019 | 0.458 ± 0.006 | 0.221 ± 0.007 | 0.251 ± 0.043 | 0.439 ± 0.0095 | 0.3431 ± 0.00066 |
| LLLVPLLAFSAS | 0.56 ± 0.054 | 0.63 ± 0.029 | 0.473 ± 0.034 | 0.6084 ± 0.0031 | 0.462 ± 0.027 | 0.46 ± 0.019 | 0.598 ± 0.015 | 0.521 ± 0.035 |
| YPVAWSSAIIIR | 0.438 ± 0.041 | 0.4531 ± 0.0036 | 0.362 ± 0.022 | 0.5314 ± 0.0037 | 0.423 ± 0.018 | 0.371 ± 0.017 | 0.506 ± 0.0061 | 0.435 ± 0.025 |
